# Measured values taken from the domain aggregation screens of Martell et al. (2025).
# Assay: soluble fraction after stress (log2 fold change); higher = more stays soluble; pooled small domains, quantitative proteomics
# Settings: stress: 75 degC
# 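Note: 20 min heating vs room temperature control held 20 min.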
row,Sequence,soluble fraction (log2)
1,HMEKINLLVENNDNYRLDKIIALNMEELSRTQIQEMIGQGLVLVNGKVEKASYKTKLNDQIEITIED,-0.0065
2,HMEKKKVPEVAGQDEAAARNVMTNSGFVVDVEQKEDDNVPAGKVITTAPAGGVEVVEGTKIILYVSKGSN,-0.052
3,HMEKKPYGEMHNVMLTDEELEKLRHDYPAHFAEYIQRLSLHIDAKGARYKSHYAVIRKWLIADGVKA,-2.36
4,HMEKLIRIKRLIKQLNEYRDSYYNEARPVVSDAAYDKLFDELSELEKETGVVYANSPTQTVG,0.0942
5,HMEKPTEITLSNRVSVQELAEKMYVSETDIIRTLFLDGRIININQVLDIDTAIRVGEQLGIKIKII,-2.14
6,HMEKPTRNKLVEIIIQNKNVTTEQMANLLNISRRAVAKHIKKLQEEGIIRRIGPDFGGHWEIVK,-0.294
7,HMEKPYTPPANLNEIQSYEELSKAVQYYNKVKDAATTDADRLKAQQSIDTLEDMRKAWDAASST,0.328
8,HMEKSLSAQVYEKIKAGIISLKYPPGSVLKERELSESLGVSRTPVREAIQRLSQESWLVPGEGKRMQVRP,-0.0542
9,HMEKTLAERVNDILAEIKMTKQELAMQLNISRSAVSQYLNGKYSSNPEAIEARLRDFVSSYDRG,-0.292
10,HMEKYIVEAEEQGKRLDMYISSKDEELTRTSAQRLIEQGDILVNNKKVKVAYKVSEGDIIAVEKQ,-0.0711
11,HMELDLPLEELGLSTRVLHSLKEEGIESVRALLALNLKDLKNIPGIGERSLEEIKEALEKKGFTLK,-0.103
12,HMELEENTERVLNILIENDIISENDIAEKLEVKINGARKALYKLKEVGFVEYTKERDEEKKWWYIYFWKLN,-0.132
13,HMELEKIRPDLDGLEIMAILGISPSPIVGRAYQYLLDLRMDRGPLGPDAAKAELLNWWSLNQPK,-1.66
14,HMELGRQDSAQLGRWAAGILAKNGKKITGRTMEFFLSRTGDDMENISSELEKLISYTLGREVITEEDIEAV,-0.263
15,HMELGWYVRLRRRELGLSVTALAEKAGMSQSYLSQIETGDRGNPSPESLRSLAEALEVSPRELESLV,-2.82
16,HMELMKPPGYWQSLENAIYESKKVIKEHGFDTLPSSNKLRELDYHGLSRAISVHHSGFPNFREIMNQELGI,-0.00652
17,HMELNDEELIKGIQELLTKIGYDPGEINGVLGIKTSSAISAFQQSRNKAITGEADLDLLVQLQIELRKITT,-1.86
18,HMELNGVSETAKSVYSIILNNSSTVDDIVIKTKLPAAKVMQALTELELNDAVERKSGGVYALP,0.0577
19,HMELPADLATVLSVDDIRAIALAEVPGSTITGVELEREEGVLVYKVKFNDGSYKLYDANTGELV,0.105
20,HMELPPLEPIDRILVVQQPINIREQPGVLAKKIGRVSSGETLTILAKVSGQDWYFVETDNGGRGYVFKRV,-1.15
21,HMELQYSQEIEEAQKILENLGLYRGEIDGINGINTKSAIREFQRKSGLVVDGILGPNTTNALSKGSDAYIT,0.0481
22,HMELVQIIGNNIRDLMTTRSVTITDLANYLNVSRQTLQNYLRGSNIIDSVKLVAVSDFFDVPVESLLQSK,-1.45
23,HMEMGNKIKELRTKLGITQEELSKTLNVSSQAVSKWENGGLPDLELIPEIAKYFNVTTDYLFDIK,-0.187
24,HMEMKVIPFNQMTRDQFDQLDRFLGRLAAAQAMGSLRLTKAQQNYFLNQVKQLDLYRKRILN,-1.96
25,HMEMTSREIIKRLEEDGWYHVKTTGDHYQMKHPTKPGKVTIVHPAKDLSIGTLRSIEKQSGVRL,-0.18

row,Sequence,soluble fraction (log2)
1,HMEMVSMPGLTGSTLEFATKTLTENELKYEVVYIVDASAESGLIIRTYPTEGEMVSKKTSTIYLYIKE,-3.4
2,HMENDGQFLRAEREKYGLTLTDIYEHTHIPIKKLKAYEMWEEEMPPRTRALLELYFDQVAFEYDS,-0.862
3,HMENDPYEILGIARSASDDEIKAKYRALTRENHPDILMAKGVPQEFIDLANEKMAVINAAYDKIEKER,0.407
4,HMENEDMTGDIRVIDYIRNVAEYIQTTKGQASASQMLDRFLFPPELQYTPLDKLSGGEQRRLYLLKVLMEA,0.0433
5,HMENEFEAYSDGSSIQLNDPSKATYVVFDRQGRLLHLFQNHSLSSLSIERKNQILIITRETADGVSVKKIV,-0.53
6,HMENEIPVPELVGMSEADAAAKLASLGLERDTQREATADEESVGKVLRQEPTPGEYVDEGHKVTIWVGE,0.184
7,HMENFSTLFSRLKEERGLSNKQISSFTGAPIKEVKKWESGMGIPTEKRIVAALEGILGSEISKAI,-0.125
8,HMENHILIIDDDLMLLKTAEEILSDQYNVSVAKSGIQALNLLNKNIIPDLILLDIDMPQMDGYETL,-0.0633
9,HMENIIFDIGFHKGEDTLFYLLKGYRVIAVDADPDLINEWQNIFKKYIENGKLLLLNYVISDT,-1.29
10,HMENISVESKMKLLLKSLKTRDFISLPELVLKGESKLAISVILVAALELNRKGYIEVVQAEQFGEIYFKNT,-0.173
11,HMENKVLVITEEEKGKRLDVYLAAALEVSRSYAQQLIQGEDVVVNDKQVKANYRLSEGDVVQVQLD,1.01
12,HMENLIEELTAKNKEYIHSVTKQLILVGKSDEEVKEILNDILPQIIEGQKSGIIARKLLGAPTEFVSQYQP,-0.269
13,HMENLQLQQLVKGLPEKMQEIVILRFSQELTMREIADIVNLPMRTVQSQLRLALKILKKEMG,-0.682
14,HMENLSFNINSEEEGQRIDKYLSVMIEGKSRSFVQGLIEEKKVKANSKVIKSNYKLKKGDFIEVEVPEPV,0.289
15,HMENLSGNDIKYLRKKYNLTQKELADALGLQKFGDRTIRRWEAEETHPSKLEQSSIQSFFNSLK,-0.0716
16,HMENLTLVIGNKLKNIRNSRNLSLDDVAELTGVSKAMLGQIERGKSNPTVSTLWKISTGLRVSFSSFIDE,-3.44
17,HMENLVPVVVATTNIEPRTQITDAMVKVEQIPALGRNESMLEDPALVVGGYATGKIYAGQSFIQPMVSK,0.351
18,HMENNIILNYVKDNLNITEKDAKDLIELLGSDYYHIKNETNKIAAFLDGQPYSFEKIKNLISIDKEY,0.0409
19,HMENPLETYYSQWVSAIKREHPEASFVKDTDGKYYVEGLTKNRLAVIYENPHLVRLVNATTNLHVE,-0.567
20,HMENPVPVIITDQNFQPLLWKNVGVPTDTIFHELSPENQKKLENLMKTMVQMPLTDDGRISGYAYYSK,0.0767
21,HMENQFNDWSLTPSEKEVALFMLKGLSTQEIAAARNTKEKTVRQQASAVYAKSQLDGRYALAAWFFEDI,-0.702
22,HMENQMIIYIDENDENKRLDSYLSEITPDYSRSKIQNFIKNGNVTVNDSNKKPSYLLKENDKISFELPQQ,-0.0893
23,HMENSLLSESLAKIYIKTHRYERAYEILSRLSLAVPEKNAYFADQLRFLRKVMLAESFRKQHS,0.0207
24,HMENTSPMTPEQSKALMAYLTKRHGDSREAYLSELSQFFGRPLSSSRELTKADVSEFLNAIN,0.0561
25,HMENVVESIYNKMVESITNGQWAAGSKIPTENELAKTYQVSRSSVRQAISRLKALGLLESRQGSGTVIKK,-0.0436
